From patent publication US20250051414A1

Columns and labels:
[1] = target: IL2-Ra ectodomain with C-terminal 6xHis tag (UniProt P01589); assay: BLI (Octet RED384), biotinylated monomeric IL-2/Fc on streptavidin sensors, equilibrium binding
IL-2Rβ/γ Fc heterodimer = IL-2Rβ/γ Fc heterodimer (UniProt P14784); assay: BLI (Octet RED384), biotinylated monomeric IL-2/Fc on streptavidin sensors, 1:1 kinetic fit
Chain of UniProt P14784 (P14784 other isoform, or with tags, fused parts or gaps, chain 1 of 2): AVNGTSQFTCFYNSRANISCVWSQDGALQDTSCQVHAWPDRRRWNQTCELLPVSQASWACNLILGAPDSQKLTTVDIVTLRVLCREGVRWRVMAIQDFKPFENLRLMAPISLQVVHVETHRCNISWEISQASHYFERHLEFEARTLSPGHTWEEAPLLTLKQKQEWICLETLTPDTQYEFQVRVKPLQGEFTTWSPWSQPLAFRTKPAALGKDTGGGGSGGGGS
Chain of UniProt P14784 (P31785 other isoform, or with tags, fused parts or gaps, chain 2 of 2, further chain): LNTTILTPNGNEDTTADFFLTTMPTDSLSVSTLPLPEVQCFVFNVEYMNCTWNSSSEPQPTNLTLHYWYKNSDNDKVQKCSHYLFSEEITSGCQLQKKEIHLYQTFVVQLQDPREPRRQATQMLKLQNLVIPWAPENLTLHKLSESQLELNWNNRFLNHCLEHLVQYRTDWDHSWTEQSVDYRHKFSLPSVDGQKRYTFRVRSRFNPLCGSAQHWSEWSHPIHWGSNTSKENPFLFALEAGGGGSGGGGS

Chain of UniProt P01589 (P01589 other isoform, or with tags, fused parts or gaps limits assumed): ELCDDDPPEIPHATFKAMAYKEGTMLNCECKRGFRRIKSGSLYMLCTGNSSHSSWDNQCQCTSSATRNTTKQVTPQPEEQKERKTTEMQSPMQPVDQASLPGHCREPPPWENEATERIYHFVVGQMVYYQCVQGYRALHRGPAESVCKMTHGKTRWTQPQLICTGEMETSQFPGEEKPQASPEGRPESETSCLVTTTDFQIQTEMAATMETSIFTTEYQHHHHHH

Question: For V91K C-term (Fc fusion), which Kd [1] is on record?
Answer: 0.69 nM

Question: And the Kd (IL-2Rβ/γ Fc heterodimer)?
Answer: 7.56 nM

Question: F42Q N-Term (Fc fusion) was tested. Which Kd [1] did it give?
Answer: 9.48 nM

Question: And the Kd (IL-2Rβ/γ Fc heterodimer)?
Answer: 2.81 nM

Question: With R38Q N-term (Fc fusion) as the substance, how does the Kd [1] read?
Answer: 0.71 nM

Question: What about the Kd (IL-2Rβ/γ Fc heterodimer) of the same substance?
Answer: 3.99 nM

Question: Which results are given for WT N-term (Fc fusion)?
Answer: Kd [1]: 0.19 nM; Kd (IL-2Rβ/γ Fc heterodimer): 5.3 nM

Question: Which results are given for WT C-term (Fc fusion)?
Answer: Kd [1]: 0.54 nM; Kd (IL-2Rβ/γ Fc heterodimer): 3.04 nM

Question: With H16N N-term (Fc fusion) as the substance, how does the Kd [1] read?
Answer: 0.43 nM

Question: And the Kd (IL-2Rβ/γ Fc heterodimer)?
Answer: 22.4 nM

Question: Which results are given for N88D C-term (Fc fusion)?
Answer: Kd [1]: 1.01 nM; Kd (IL-2Rβ/γ Fc heterodimer): 24 nM
